Measurements as given in article PMC2562019.
Like-named read-outs stand apart in the source and are kept apart here. Each block holds one substance with its values, some of them ahead of it.

Experiments:
[1] = target: Recombinant HGF receptor (c-met)/fc chimera (UniProt P08581); assay: SPR; Biacore 2000, 25°C; c-Met/Fc chimera amine-coupled to a CM5 chip; medium conditioned by a healthy donor's blood (endogenous HGF, positive control) injected
[2] = target: Recombinant HGF receptor (c-met)/fc chimera (UniProt P08581); assay: as above; remark: listed apart in the source
[3] = target: Recombinant HGF receptor (c-met)/fc chimera (UniProt P08581); assay: SPR; Biacore 2000, 25°C; c-Met/Fc chimera amine-coupled to a CM5 chip; supernatant of buffy coat (before or after haemolysis by freezing) or serum of one donor, diluted 1:20 in PBS pH 7.4
[4] = target: Recombinant HGF receptor (c-met)/fc chimera (UniProt P08581); assay: SPR; Biacore 2000, 25°C; c-Met/Fc chimera amine-coupled (EDC/NHS) to a CM5 chip (22113 or 22377 RU); reconstituted rHGF injected at the stated concentrations; response read after the end of the injection (dissociation phase)

Chain of UniProt P08581 (P08581 25-932, change not shown): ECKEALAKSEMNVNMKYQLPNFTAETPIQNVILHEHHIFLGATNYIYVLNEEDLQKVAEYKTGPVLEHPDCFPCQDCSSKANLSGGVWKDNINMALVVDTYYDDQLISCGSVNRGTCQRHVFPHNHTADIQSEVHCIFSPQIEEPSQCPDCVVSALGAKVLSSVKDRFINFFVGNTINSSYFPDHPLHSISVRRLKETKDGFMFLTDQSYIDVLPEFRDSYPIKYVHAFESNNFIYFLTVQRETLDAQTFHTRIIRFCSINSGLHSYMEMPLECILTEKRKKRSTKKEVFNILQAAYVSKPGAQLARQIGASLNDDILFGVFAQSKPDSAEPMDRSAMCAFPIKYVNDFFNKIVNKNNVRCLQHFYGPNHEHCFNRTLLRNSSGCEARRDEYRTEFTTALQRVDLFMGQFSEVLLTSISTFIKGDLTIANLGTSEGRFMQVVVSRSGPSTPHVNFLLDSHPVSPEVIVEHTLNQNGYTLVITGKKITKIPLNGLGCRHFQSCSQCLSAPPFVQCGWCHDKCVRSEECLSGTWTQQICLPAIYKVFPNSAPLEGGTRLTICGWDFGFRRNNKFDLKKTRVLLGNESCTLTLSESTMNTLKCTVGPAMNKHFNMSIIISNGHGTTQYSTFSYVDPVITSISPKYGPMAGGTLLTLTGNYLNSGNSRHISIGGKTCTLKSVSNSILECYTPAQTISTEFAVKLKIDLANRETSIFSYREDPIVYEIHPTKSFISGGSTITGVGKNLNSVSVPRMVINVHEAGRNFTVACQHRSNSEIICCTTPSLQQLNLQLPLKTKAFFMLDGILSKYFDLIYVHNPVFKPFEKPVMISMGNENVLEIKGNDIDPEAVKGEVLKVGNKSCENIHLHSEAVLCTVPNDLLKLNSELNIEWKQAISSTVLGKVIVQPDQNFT

SPR response [1]: 209 RU
SPR response [2]: 403 RU
Substance: Endogenous HGF from human blood (ligand)
SPR response, buffy coat supernatant 1:20 [3]: 247 RU
SPR response, haemolysed buffy coat 1:20 [3]: 163 RU
SPR response, serum 1:20 [3]: 317 RU

SPR response at 2.5 μg/ml after 15 h at room temperature [4]: 181 RU
SPR response at 2.5 μg/ml after 15 h at −20°C and thawing [4]: 94 RU
SPR response at 2.5 μg/ml, freshly reconstituted [4]: 194 RU
Substance: Recombinant HGF, R&D carrier-free, lot GJ174034 (from UniProt P14210 32-728) (ligand)

SPR response at 0.8 μg/ml [4]: 120 RU
SPR response at 4 μg/ml [4]: 201 RU
SPR response at 5 μg/ml [4]: 265 RU
Substance: Recombinant human hepatocyte growth factor, lot GJ175031 (from UniProt P14210 32-728) (ligand)
